Experimental data published in the MegaScale stability set (Tsuboyama et al. 2023).

B1: r11_951_TrROS_Hall (parent)
chain: KKKYVIKVYFEDTGKEVEIEAESKEEALEAAKRLAEELGLKIKKVEIYP

Variants of: B1
Assay: folding stability dG (cDNA display proteolysis); higher = more stable
Settings: PBS, room temperature

Folding stability dG [kcal/mol]: each site, then its substitutions
L40: A 4.02 | F 4.6 | W 4.72 | M 4.31 | D 3.85 | R 4.27 | V 4.1 | E 3.99 | G 3.56 | N 3.66 | H 4.12 | K 3.93 | P 3.02 | S 3.9 | I 3.96 | Y 4.88 | C 3.95 | Q 4.07 | T 3.92
E37: L 4.55 | C 4.94 | M 4.67 | D 4.29 | R 4.69 | P 2.86 | T 4.61 | V 4.6 | G 4.55 | F 4.73 | Q 4.77 | N 4.42 | S 4.71 | Y 4.82 | I 4.61 | K 4.68 | H 4.72 | A 4.67
V45: W 4.59 | H 4.08 | A 3.96 | I 3.98 | D 2.62 | F 4.48 | C 4.16 | K 3.16 | T 4.16 | S 3.94 | Q 3.87 | G 2.79 | P 2.52 | R 2.97 | Y 4.45 | N 3.32 | L 4.08 | M 4.47 | E 3.18
K41: E 4.16 | D 4 | N 4.28 | P 4.25 | S 4.41 | F 4.44 | L 4.36 | T 4.32 | Q 4.02 | G 4.07 | H 4.22 | Y 4.5 | R 4.62 | V 4.34 | W 4.11 | I 4.19 | C 4.33 | A 4.33 | M 4.38
A35: Q 3.9 | F 4.13 | H 3.63 | P 2.83 | E 4.05 | W 4.13 | R 3.55 | S 4.35 | T 3.84 | C 4.08 | M 3.97 | Y 3.78 | G 4.25 | L 3.88 | K 3.58 | V 4.06 | D 2.58 | I 3.99 | N 3.14
L38: D 3.39 | T 4.16 | N 4.15 | P 2.86 | Q 4.21 | A 4.52 | G 3.85 | S 4.28 | F 4.42 | I 4.29 | C 4.07 | K 4.2 | H 4.13 | M 4.56 | E 3.89 | Y 4.53 | R 4.34 | V 4.3 | W 4.52
E36: C 4.39 | H 4.56 | K 4.54 | T 4.6 | S 4.53 | R 4.91 | D 4.42 | Q 4.66 | P 3.05 | G 4.6 | M 4.66 | I 4.61 | F 4.76 | A 4.62 | L 4.68 | V 4.66
K32: S 4.42 | G 4.13 | N 4.51 | C 4.22 | L 4.55 | V 4.35 | M 4.68 | T 4.41 | H 4.55 | F 4.98 | Y 4.9 | I 4.34 | D 4.21 | E 4.28 | W 4.78 | P 3.09 | R 4.26 | Q 4.38 | A 4.44
G39: C 4.25 | Y 3.82 | S 4.26 | F 4.14 | E 4.18 | R 4.43 | T 4 | I 3.67 | W 3.5 | L 4.06 | H 4.31 | D 3.99 | N 4.39 | M 4.38 | K 4.53 | P 2.73 | V 4.03 | A 4.49 | Q 4.37
